From US20200332005A1 (I MAB, published 2020) come the findings set out here.

Read-outs that look alike come from different tables or passages of the source.

In experiment [1] the target is T1, recombinant human CD73 protein (human, UniProt P21589 27-547).
T1 construct: Bought (Novoprotein); also called recombinant CD73 protein; soluble CD73
T1 sequence: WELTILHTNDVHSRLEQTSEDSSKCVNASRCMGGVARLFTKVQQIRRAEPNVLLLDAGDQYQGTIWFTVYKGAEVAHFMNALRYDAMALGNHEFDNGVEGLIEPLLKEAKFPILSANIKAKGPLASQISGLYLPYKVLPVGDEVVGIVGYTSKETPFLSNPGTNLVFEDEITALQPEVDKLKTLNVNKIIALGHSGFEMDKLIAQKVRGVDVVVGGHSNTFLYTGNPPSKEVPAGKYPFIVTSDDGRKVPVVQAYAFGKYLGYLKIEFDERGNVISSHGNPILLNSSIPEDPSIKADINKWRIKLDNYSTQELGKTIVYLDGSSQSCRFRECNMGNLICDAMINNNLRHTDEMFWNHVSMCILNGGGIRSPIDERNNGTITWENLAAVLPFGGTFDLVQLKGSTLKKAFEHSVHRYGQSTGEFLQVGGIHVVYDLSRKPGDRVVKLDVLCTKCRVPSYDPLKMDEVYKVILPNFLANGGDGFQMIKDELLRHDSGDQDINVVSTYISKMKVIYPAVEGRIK
The experiment can be described thus: SPR, Biacore T200, antibody captured by anti-human Fc IgG, antigen as analyte, 1:1 model, 25 C. As to the method:
For the binding assay, the Biacore T200 system was used through human antibody capture approach. The anti-human Fc lgG were immobilized on CMS sensor chip according to the manufactory's instruction. The test antibody was injected and captured by the immobilized anti-human Fc lgG. And then serial concentrations of antigen was individually injected, and the binding profile was recorded for each concentration antigen analyte, respectively. The assay system was regenerated by injection of 10 mM Glycine-HCl pH 1.5 for 30 seconds. The running buffer was HBS-EP+(10 mM HEPES, pH 7.4, 150 mM NaCl, 3 mM EDTA and 0.05% P20). The assay temperature was 25° C., and the association and dissociation time were 180 and 600 seconds, respectively.

For experiment [2], the target named is cyno CD73 (cyno). Kind of experiment: cell-based or functional assay.
The target of experiment [3] is T1, recombinant human CD73 protein. The experiment can be described thus: cell-based or functional assay.
For experiment [4], the target named is cyno CD73 (cyno). Kind of experiment: plate binding assay read as OD 450 against Log (nM) of antibody; text: in vitro biochemical assay.
Experiment [5] has as its target T1, recombinant human CD73 protein. Described as above.
For experiment [6] the target is unchanged. Kind of experiment: ELISA, recombinant human CD73 at 2 ug/ml.
Another experiment concerns the target C-terminal of CD73. The experiment can be described thus: plate binding assay, axis Binding activity (OD450) against Ab (µg/ml); panel Binding to C-terminal of CD73.
Chain of C-terminal of CD73 (P21589 whole entry): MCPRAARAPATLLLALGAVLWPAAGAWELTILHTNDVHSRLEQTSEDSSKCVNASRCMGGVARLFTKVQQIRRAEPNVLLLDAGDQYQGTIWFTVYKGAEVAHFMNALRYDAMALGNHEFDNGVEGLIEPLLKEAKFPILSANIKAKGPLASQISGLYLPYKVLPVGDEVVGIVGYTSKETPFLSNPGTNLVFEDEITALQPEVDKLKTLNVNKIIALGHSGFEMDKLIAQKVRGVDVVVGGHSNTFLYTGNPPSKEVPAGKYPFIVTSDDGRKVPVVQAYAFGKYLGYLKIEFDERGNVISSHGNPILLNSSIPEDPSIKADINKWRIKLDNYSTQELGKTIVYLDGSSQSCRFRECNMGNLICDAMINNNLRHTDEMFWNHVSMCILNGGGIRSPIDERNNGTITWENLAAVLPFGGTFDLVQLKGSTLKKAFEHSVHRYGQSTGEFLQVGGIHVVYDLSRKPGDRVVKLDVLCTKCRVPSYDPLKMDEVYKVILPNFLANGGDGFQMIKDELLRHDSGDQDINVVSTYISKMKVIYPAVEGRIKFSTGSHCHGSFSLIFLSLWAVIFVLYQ
Experiment [7] addresses T1, recombinant human CD73 protein. Kind of experiment: cell-based or functional assay. The source holds these as a separate data set.
The target of experiment [8] is T2, human CD73 on the cell surface (human, UniProt P21589 27-549).
T2 sequence: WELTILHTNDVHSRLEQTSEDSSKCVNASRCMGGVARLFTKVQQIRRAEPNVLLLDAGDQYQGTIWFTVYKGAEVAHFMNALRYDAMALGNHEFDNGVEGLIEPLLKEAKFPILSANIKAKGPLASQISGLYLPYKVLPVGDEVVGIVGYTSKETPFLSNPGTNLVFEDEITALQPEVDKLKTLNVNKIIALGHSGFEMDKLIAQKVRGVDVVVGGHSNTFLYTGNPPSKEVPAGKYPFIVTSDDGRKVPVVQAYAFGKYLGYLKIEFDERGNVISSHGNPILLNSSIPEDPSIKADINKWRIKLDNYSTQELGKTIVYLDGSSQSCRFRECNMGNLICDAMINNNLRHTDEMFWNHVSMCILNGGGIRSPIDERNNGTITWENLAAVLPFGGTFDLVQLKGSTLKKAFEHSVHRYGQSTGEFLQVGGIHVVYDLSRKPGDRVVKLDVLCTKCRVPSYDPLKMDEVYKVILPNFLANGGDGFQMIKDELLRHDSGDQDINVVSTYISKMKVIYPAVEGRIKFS
The experiment can be described thus: cell-based or functional assay.

Experiment [9] has as its target T1, recombinant human CD73 protein. The experiment can be described thus: cell-based or functional assay. The source holds these as a separate data set.
For experiment [10], the target named is T2, human CD73 on the cell surface. The experiment can be described thus: flow cytometry on SK-OV-3 cells. Here is the method: Binding was measured using an FACSCanto (Becton-Dickinson), and the results are presented in FIG. 8 (see also the table below).
Experiment [11] has the same target. Kind of experiment: flow cytometry on SK-OV-3 cells. From the text:
In the right panel, human ovarian carcinoma cell line (SK-OV-3) was stained with different concentrations of Hu101-28 and analyzed for surface binding by flow cytometry.
The source holds these as a separate data set.

Experiment [12] has the same target. Kind of experiment: cell-based or functional assay. This is another data set of the same source.

B1: Hu101-28 (antibody, V domains shown)
VH: EVQLQESGPGLVKPSETLSLTCAVSGYSITSGYYWNWIRQPPGKKLEWMGYINYGGSNGYNPSLKSRITISRDTSKNQFSLKLSSVTAADTAVYYCARDYDAYYEALDDWGQGTTVTVSS
VL: EIVLSQSPATLSLSPGERATLSCRASSRVNYMHWYQQKPGQSPRPWISATSNLASGVPARFSGSGSGTSYTLTISSLEPEDFAVYYCQQWSSNPPTFGGGTKVEIK
notes: also called humanized anti-CD73 antibody Hu101-28
Regarding B1, in experiment [1], the Kd is 0.59 nM. For the same molecule, the koff in experiment [1] stood at 3.47e-05 s⁻¹. For the same molecule, the kon in [1] came to 58900 M⁻¹ s⁻¹. The “IC50, inhibition of CD73 enzyme activity (% of residual enzyme activity)” value came out at 2.22 nM in the experiment with cyno CD73 [2] and 1.78 nM in experiment [3]. Besides, the EC50 with cyno CD73 [4] was 0.44 nM; in experiment [5], 0.09 nM; in [6], 0.0887 nM; in [10], 1.35 nM; in [11], 0.67 nM. The “EC50 (read off the curve)” value with C-terminal of CD73 was ~0.02 µg/mL. The “IC50 (nM), inhibition of recombinant CD73 enzymatic activity” value in [7] was found to be 9.35 nM. Also, the “IC50, inhibition of CD73 activity on MDA-MB-231 cells (CellTiter-Glo)” value in experiment [8] is 8.21 nM. Moreover, the “IC50, inhibition of CD73 activity on SK-OV-3 cells (CellTiter-Glo)” value in experiment [8] is 2.52 nM. The “IC50, inhibition of recombinant human CD73 activity (CellTiter-Glo)” value in experiment [9] is 2.84 nM. Moreover, the “IC50 (nM), inhibition of CD73 enzymatic activity on SK-OV-3 cells” value in [12] turned out to be 2.52 nM.
